Molecular target: IL-2 receptor (IL-2R) on primary pan T-cells from healthy donors (human) (UniProt P01589)
Assay: cell-based or functional assay

Sequence of IL-2 receptor (IL-2R) on primary pan T-cells from healthy donors (human) (P01589 22-272, chain 1 of 3): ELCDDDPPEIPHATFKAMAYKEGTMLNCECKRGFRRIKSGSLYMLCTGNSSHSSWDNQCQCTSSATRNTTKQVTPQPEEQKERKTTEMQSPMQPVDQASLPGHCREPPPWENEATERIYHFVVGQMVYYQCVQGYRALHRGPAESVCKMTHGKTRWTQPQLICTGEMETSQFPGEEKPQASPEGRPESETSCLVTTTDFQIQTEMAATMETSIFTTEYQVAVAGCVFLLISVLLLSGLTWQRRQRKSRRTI
Sequence of IL-2 receptor (IL-2R) on primary pan T-cells from healthy donors (human) (P14784 27-551, chain 2 of 3, further chain): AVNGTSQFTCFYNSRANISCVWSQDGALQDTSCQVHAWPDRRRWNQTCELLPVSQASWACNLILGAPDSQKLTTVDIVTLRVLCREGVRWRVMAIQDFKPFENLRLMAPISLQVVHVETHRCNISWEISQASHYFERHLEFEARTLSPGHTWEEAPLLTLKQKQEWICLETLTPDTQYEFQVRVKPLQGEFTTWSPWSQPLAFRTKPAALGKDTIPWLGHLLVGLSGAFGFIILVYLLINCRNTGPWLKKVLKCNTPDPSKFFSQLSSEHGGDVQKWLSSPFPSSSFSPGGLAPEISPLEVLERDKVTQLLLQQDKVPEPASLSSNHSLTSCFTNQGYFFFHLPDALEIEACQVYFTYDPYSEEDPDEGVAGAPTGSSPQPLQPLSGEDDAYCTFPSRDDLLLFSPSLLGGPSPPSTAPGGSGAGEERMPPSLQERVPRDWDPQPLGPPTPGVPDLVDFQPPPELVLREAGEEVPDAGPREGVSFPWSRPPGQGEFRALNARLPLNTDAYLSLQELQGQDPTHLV
Sequence of IL-2 receptor (IL-2R) on primary pan T-cells from healthy donors (human) (P31785 23-369, chain 3 of 3, further chain): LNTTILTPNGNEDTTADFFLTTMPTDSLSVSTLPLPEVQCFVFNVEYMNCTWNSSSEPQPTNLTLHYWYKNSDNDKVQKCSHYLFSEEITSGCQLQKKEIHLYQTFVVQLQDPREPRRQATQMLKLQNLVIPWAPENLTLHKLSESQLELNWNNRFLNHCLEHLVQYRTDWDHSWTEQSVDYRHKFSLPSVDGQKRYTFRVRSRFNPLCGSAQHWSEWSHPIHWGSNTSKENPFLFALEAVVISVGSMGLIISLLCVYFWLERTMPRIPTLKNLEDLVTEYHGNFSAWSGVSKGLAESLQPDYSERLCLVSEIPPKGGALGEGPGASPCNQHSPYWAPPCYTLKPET

Aldesleukin (from UniProt P60568 22-153) (ligand)
CD8 EC50 (nM), STAT5 phosphorylation: 9.07 nM
CD8 naïve EC50 (nM), STAT5 phosphorylation: 477 nM
Treg EC50 (nM), STAT5 phosphorylation: 0.019 nM
